# B1: purified recombinant human ICE (protein)
# chain 1: NPAMPTSSGSEGNVKLCSLEEAQRIWKQKSAEIYPIMDKSSRTRLALIICNEEFDSIPRRTGAEVDITGMTMLLQNLGYSVDVKKNLTASDMTTELEAFAHRPEHKTSDSTFLVFMSHGIREGICGKKHSEQVPDILQLNAIFNMLNTKNCPSLKDKPKVIIIQACRGDSPGVVWFKD
# chain 2: AIKKAHIEKDFIAFCSSTPDNVSWRHPTMGSVFIGRLIEHMQEYACSCDVEEIFRKVRFSFEQPDGRAQMPTTERVTLTRCFYLFPGH
# Biological target: purified poly(ADP-ribose) polymerase (PARP)
protein,measurement,value
B1,"proteolytic cleavage of purified PARP, anti-PARP immunoblot",Purified ICE did not cleave PARP

# Reference: US7097972
